Measured values reported in US20250382376A1 (FUDAN UNIVERSITY, published 2025).

B1: chimeric nanobody 3-D7 (Fc fusion)
VHH: QRQLVESGGGLVQPGGSLRLSCAASGFLLDYYVIGWFRQAPGKEREGVSCISGSDRSTYYADSVKGRFTISRDNAKNTVYLQMNSLKPEDTAVYFCAADPSPVTVQAMCLPRFPVPYWGQGTQVTVST
notes: Human-alpaca chimeric antibody (VHH on hIgG1 Fc); Only the VHH is tied to the tested molecule; 37-39 exist for 3-D7-FC1/FC2/FC3; also called original antibody 3-D7
B2: chimeric nanobody 4-D04 (Fc fusion)
VHH: QLQLVESGGGLVQPGGSLRLSCAASGFTLDYYNIGWFRQAPGKEREGVSCISSSEGSTYYADSVKGRFTISRDNAKNTVYLQMNSLKPEDTAVYYCAADRYYYCSLHVSQYDYWGQGTLVTVSS
notes: Human-alpaca chimeric antibody
B3: chimeric nanobody 5-E11 (Fc fusion)
VHH: ALQLVESGGGLVQPGGSLRLSCEVSGFTLDYYNIGWFRQAPGKEREGVSCSSNSGGSTYYADSVKGRFTISRDNAKNTVYLQMNSLKPEDTGVYYCAAYRGWHPSLDARVYDYWGQGTEVTVSS
notes: Human-alpaca chimeric antibody (VHH on hIgG1 Fc); Only the VHH is tied to the tested molecule; also called original antibody 5-E11
B4: chimeric nanobody 4-B02 (Fc fusion)
VHH: EVQLVESGGGLVQPGGSLRLSCAASGFPLDYYSIGWFRQAPGKEREGVSCIGSSDGSTYYADSVKGRFTISRDNAENTVWLQMNSLKPEDTAVYYCAALKYYYCSGHEAIYDYWGQGTQVTVSG
notes: as for B2

molecular target: T1, CD73 on the surface of human cells (human, UniProt P21589 27-549); test: cell-based or functional assay
T1 sequence (looked up): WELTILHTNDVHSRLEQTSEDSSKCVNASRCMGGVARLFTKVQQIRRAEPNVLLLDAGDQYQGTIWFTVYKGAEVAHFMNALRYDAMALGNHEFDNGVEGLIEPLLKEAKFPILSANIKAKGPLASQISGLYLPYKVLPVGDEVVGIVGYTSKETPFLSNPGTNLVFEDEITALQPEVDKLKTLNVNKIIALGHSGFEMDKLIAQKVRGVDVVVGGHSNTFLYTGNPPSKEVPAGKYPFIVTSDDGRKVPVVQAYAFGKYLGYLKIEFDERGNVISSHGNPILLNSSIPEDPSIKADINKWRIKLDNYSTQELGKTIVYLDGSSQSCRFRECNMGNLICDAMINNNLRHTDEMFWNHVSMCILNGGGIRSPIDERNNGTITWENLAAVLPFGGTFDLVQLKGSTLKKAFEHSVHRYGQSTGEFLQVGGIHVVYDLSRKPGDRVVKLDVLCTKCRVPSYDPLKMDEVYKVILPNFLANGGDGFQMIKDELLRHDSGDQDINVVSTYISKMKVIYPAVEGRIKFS

Row | EC50, reversal of the AMP inhibition of human T lymphocyte proliferation [ng/mL] | IC50, inhibition of AMP hydrolysis by CD73 on MDA-MB-231 cells [ng/mL] | Binder
1 | 24.7 | 483 | B1
2 | 2.5 | 93 | B2
3 | 0.8 | 88 | B3
4 | 1.2 | 83 | B4

molecular target: T2, human recombinant CD73 enzyme (CD73 extracellular region) (human, UniProt P21589 27-549); test: cell-based or functional assay
T2 sequence (looked up): T1 sequence (looked up)

Row | IC50, inhibition of AMP hydrolysis by recombinant human CD73 enzyme (CellTiter-Glo) [ng/mL] | IC50, inhibition of the catalytic function of recombinant human CD73 enzyme [ng/mL] | Binder
5 | 38.2 | 36.3 | B1
6 | 5.63 | – | B2
7 | 9.47 | – | B3
8 | 4.66 | – | B4

molecular target: T3, extracellular domain of human CD73 protein, C-terminus polyhistidine-tagged (human, UniProt P21589 27-547); test: ELISA, coated CD73-ECD, protein A-HRP
T3 construct: also the immunogen; also called CD73-ECD; human CD73-ECD
T3 sequence: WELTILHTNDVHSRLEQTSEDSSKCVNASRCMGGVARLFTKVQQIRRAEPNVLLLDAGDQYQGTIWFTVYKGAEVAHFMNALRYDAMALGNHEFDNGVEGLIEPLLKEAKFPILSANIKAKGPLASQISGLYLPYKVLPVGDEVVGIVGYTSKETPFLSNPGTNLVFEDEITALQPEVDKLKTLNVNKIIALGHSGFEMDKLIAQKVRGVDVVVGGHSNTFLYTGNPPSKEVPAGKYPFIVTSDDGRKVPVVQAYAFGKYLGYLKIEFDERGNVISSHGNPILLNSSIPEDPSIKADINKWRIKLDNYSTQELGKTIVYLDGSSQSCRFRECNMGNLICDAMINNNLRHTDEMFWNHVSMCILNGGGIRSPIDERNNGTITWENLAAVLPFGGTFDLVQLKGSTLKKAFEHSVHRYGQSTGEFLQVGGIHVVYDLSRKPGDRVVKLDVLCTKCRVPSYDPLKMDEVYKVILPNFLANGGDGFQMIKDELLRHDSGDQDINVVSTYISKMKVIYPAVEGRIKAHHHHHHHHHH
Experimental: (§1) The CD73 protein extracellular region (CD73-ECD) was diluted to 1 μg/mL using the coating solution, and an ELISA plate was coated at 100 μL/well at 4° C. overnight. Excess antigens were washed away, and the plate was blocked with 1% BSA at room temperature for 2 hours. Then, 5-fold gradient dilutions of each monoclonal antibody were added at 100 μL/well and incubated at room temperature for 1 hour. Unbound antibodies were washed away, and an appropriate concentration of Staphylococcal protein A labeled with horseradish peroxidase was added at 100 μL/well and incubated at room temperature for 0.5 hours. Unbound secondary antibodies were washed away, and TMB color development solution was added to react for about 15 minutes. 1M HCL was added at 50 µL/well to terminate the color development reaction, and then the absorbance was measured at 450 nm and the data was analyzed.

Row | EC50 [ng/mL] | Binder
9 | 13.5 | B1
10 | 2.67 | B2
11 | 8.72 | B3
12 | 3.03 | B4

molecular target: T1, CD73 on the surface of human cells; test: Flow cytometry on PC9 cells, PE-labelled secondary antibody [panel A]
Experimental: (§2) 100 μL of the test antibodies diluted from 10 μg/mL to 0.016 μg/mL in a 5-fold gradient were used as the primary antibodies, and were mixed with 1×10⁵ tumor cells suspended in 100 μL RPMI-1640 serum-free medium to make a final concentration of 5 μg/mL diluted to 0.008 μg/mL, and then incubated at 4° C. for 1 h. The cells were washed twice with PBS to remove unbound primary antibodies, and then the target cells were incubated with 200 μLPE-labeled secondary antibody at 2 μg/mL at 4° C. for 30 min. The cells were washed twice with PBS to remove unbound secondary antibodies, and finally the cells were resuspended in 200 μL PBS. The binding affinity of the test antibodies to CD73 on the surface of the corresponding cells was measured by flow cytometry.

Row | Max MFI [MFI] | Binder
13 | 58800 | B1
14 | 65000 | B2
15 | 58900 | B3
16 | 61600 | B4

molecular target: T1, CD73 on the surface of human cells; test: Flow cytometry on NCI-H1373 cells, PE-labelled secondary antibody [panel B]
Experimental: as §2

Row | Max MFI [MFI] | Binder
17 | 200000 | B1
18 | 220000 | B2
19 | 191000 | B3
20 | 206000 | B4

molecular target: T3, extracellular domain of human CD73 …; test: SPR as the filing names it (ForteBio OCTET R2); antibody on Protein A sensor, CD73-ECD in solution, 25 C
Experimental: (§3) Surface plasmon resonance (SPR) assay: Protein A sensor was used to immobilize the antibodies, with an immobilization height of about 1.5 nM. […] Affinity detection: equilibrium for 60 s, binding for 180 s, dissociation for 180 s, at a detection temperature of 25° C. Kinetic characterization analysis was performed using the ForteBio OCTET R2 system.

Row | Kd [nM] | Binder
21 | 2 | B1
22 | 0.919 | B2
23 | 0.826 | B3
24 | 0.795 | B4

molecular target: T3, extracellular domain of human CD73 …; test: ELISA on CD73-ECD, 20 µL supernatant of antibody expression, second of two readings; PBS 0.19, 0.18
Experimental: as §1
CD73 antigen ELISA binding affinity test was performed according to the method of Example 3.

Row | ELISA reading (not named on the sheet) | Binder
25 | 4.32 | B3

molecular target: T3, extracellular domain of human CD73 …; test: ForteBio OCTET R2 (the filing calls it SPR); antibody on Protein A sensor, CD73-ECD in solution; traces labelled 100, 50, 25, 12.5, 6.25
Experimental: as §3

Row | koff [s⁻¹] | kon [M⁻¹ s⁻¹] | Binder
26 | 0.000445 | 223000 | B1
27 | 0.000277 | 301000 | B2
28 | 0.000318 | 385000 | B3
29 | 0.000209 | 263000 | B4

molecular target: T3, extracellular domain of human CD73 …; test: ForteBio Octet (the filing calls it SPR), by the method of Example 2 according to the text; sheet prints 'Loading Sample ID: FDYKSD-02-His'; traces labelled 25, 12.5, 6.25, 3.13

Row | koff [s⁻¹] | kon [M⁻¹ s⁻¹] | Binder
30 | 0.000588 | 1.25e+06 | B1
